Source: the supplement of paper PMC12764529
± gives the half width of the 95% confidence interval.

Experiment: folding stability dG unfold from trypsin proteolysis; higher = more stable
In short: (§1)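 Designed mini-proteins (under 80 residues, no cysteine) in a PA-tagged cDNA display construct were digested with trypsin and chymotrypsin. Each protease was used at 11 concentrations (threefold dilutions) plus a no-protease condition, followed by sequencing. K50 was inferred by Bayesian fitting of sequencing counts, and unfolding free energy was derived against a sequence-predicted unfolded-state K50 and a shared folded-state K50, per protease or combined. Only designs with AlphaFold2 dimer inter-PAE above 15 were kept.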
For “SAGGSAGGSEEIKKAIEEALKKMKPGEEKEVTIEIYDKKTNKKIAKIKIRIRRKKDGKLEIEFSAGGSAGGS [r20_151_TrROS_Hall]”, the “folding stability dG unfold” value was 4.01 ± 0.2 kcal/mol. For “SAGGSAGGSAGGYFIRINNGRTFPFPSPEDAEEIVKTIARPFGHPDMTIEIYRMPPEQFPSAGGSAGGSAGG [r7_839_TrROS]”, the “folding stability dG unfold” value was -0.0675 ± 0.22 kcal/mol. For “SAGGSAGGSAGSGTMFDFGSASVETLEEDPNGRVLVKVTLPDSEYLLEIVKGELVKIEPRSAGGSAGGSAGG [r17_396_JUSTAS]”, the “folding stability dG unfold” value was -0.274 ± 0.28 kcal/mol. In the case of “SAGGSAGGSAGYTVSVSVETETLKYLDPETGELVEEETLVRVTITITPPPPAPPNLPENLSAGGSAGGSAGG [r17_493_TrROS_Hall]”, the “folding stability dG unfold” value is reported as 2.37 ± 0.23 kcal/mol. For “SAGGSAGGSTPMSVEEIVERIKEEKRKENPNETVEIEFTAELKGGPEGAPEGIYPVKIKVPPGKSAGGSAGG [r6_79_JUSTAS]”, the “folding stability dG unfold” value was 0.05 ± 0.051 kcal/mol. In the case of “SAGGMAEEVAEAVRDFFESQGLPAEVEPLSVHPNNLVVYRFRVPGYYALVVADPDNPVVVVTVYPLPSAGGS [r8_157_TrMRF]”, the “folding stability dG unfold” value is reported as 2.46 ± 0.13 kcal/mol. In the case of “SEAEVEVEVLPGPDAVVVRVRLPGRDEVVELRVLDPHPGEGRVLVAVSPGDDDTVVVRDLSPEDIKALLASA [r9_1221_TrMRF]”, the “folding stability dG unfold” value is reported as 1.843 ± 0.018 kcal/mol. In the case of “SAGGSAGGSAGGSEEEIKKLAAEGGSFTATIPVVTPDGKPVEKTVTVEVKTDPKTGKLVSAGGSAGGSAGGS [r10_346_JUSTAS]”, the “folding stability dG unfold” value is reported as 0.482 ± 0.043 kcal/mol. In the case of “SGKVKVKVEIPIPFRPPDGKWMMMNIWVEAEVPVTPEDLNNGKPRIRPEALDEAKDKVREWMRDIFGEPISA [r9_629_TrROS]”, the “folding stability dG unfold” value is reported as 1.03 ± 0.052 kcal/mol. With “SAGPPPWMVIRIPFWVKVTPDDGIITIEFKIEIGNKEFKIKITIPIPPELADAPPGETIPIPIWIFIRPSAG [r5_714_TrROS]” the “folding stability dG unfold” value was 3.99 ± 0.16 kcal/mol. For “SNIKNIKRVEIYYNPENGWMPKIKVEYPGGEREFMFPPDQAEELLNWLQQKGLPMKITDVEYHPMPPDQMSA [r9_607_TrROS]”, the “folding stability dG unfold” value was 0.911 ± 0.086 kcal/mol.

Experiment: folding stability dG unfold from chymotrypsin proteolysis; higher = more stable
In short: as §1
For “SAMVTYDPEKGVFEAEIEVGGETLRVTVVRDPETGEVVAVVERPGSGEPVVLPLPFKSLSDVIRYAEEHSAG [r14_803_TrMRF]”, the “folding stability dG unfold” value was 2.49 ± 0.044 kcal/mol. For “SAGGSAGGSAGPENKNYMVMEMTIDIWIPLPPNAKVVFDPDEGKWKYVPIKIPIRIVMPWSAGGSAGGSAGG [r11_257_TrROS]”, the “folding stability dG unfold” value was 3.43 ± 0.12 kcal/mol. In the case of “SAGGSAGGSYTVETSPVPPGGLLKTYTSPDGVVTTTLYSPDGTVGETTTTPVPPVVPPDPAAAASAGGSAGG [r6_239_JUSTAS]”, the “folding stability dG unfold” value is reported as 1.33 ± 0.053 kcal/mol. With “SAGGSMEVKVEVVKDEETKEYYVKVEIRDPKTKKTITLEYKVKEEDKEEALKKAKELAEELAKKGISAGGSA [r2_221_TrROS_Hall]” the “folding stability dG unfold” value was 3.64 ± 0.077 kcal/mol. For “SAGGSAGGPKEKKWYVMVHITWRDDGKERPRHFMFKSPEQVIEALEEQLPPDNIEIDVAVFPYKSAGGSAGG [r6_114_TrROS]”, the “folding stability dG unfold” value was 2.95 ± 0.053 kcal/mol. With “SAGGATLTLKPGDEITLTLTVTVTVTNEDGSTSTFTTTVTLTLRIEPAPPPPPVTVERDADGNLRVTLSAGG [r13_401_TrROS_Hall]” the “folding stability dG unfold” value was 2.46 ± 0.091 kcal/mol. For “SAGGSAGGTIIIEVDTREDALEAARALAEALLPPGYRVEIVSVEEVDGRVYVAIEVRPVPEEELSAGGSAGG [r6_72_TrROS_Hall]”, the “folding stability dG unfold” value was 3.26 ± 0.078 kcal/mol. For “SAGWYYIIIIKHDNKPIVFVIPPEGMPPEGIRDQISEMLGMPPDNVEIDDIVPFDDNQDAEEAVKEALDSAG [r5_900_TrROS]”, the “folding stability dG unfold” value was 2.33 ± 0.14 kcal/mol. In the case of “SPPETETYPIPNPEDGKPLMDITIERNPENGNWKVEIYWPGGKKKEVEFPPNETIPIDDLPPGFWVTITRSA [r9_1150_TrROS]”, the “folding stability dG unfold” value is reported as 1.56 ± 0.069 kcal/mol. With “SAMKYLVEVTADLGGPSVRYELDAESIEEAIEKVKEKLKPLFPDAPLKNITLTFHDPSSDETTTVNIVESAG [r14_54_JUSTAS]” the “folding stability dG unfold” value was 3.54 ± 0.031 kcal/mol. In the case of “SAGGSAGGSFRIKEIEYKPPKGMIEVEIEFPNGRPIKIHINPDEGWDPIYFGGKPIFPIRIEPSAGGSAGGS [r12_789_TrROS]”, the “folding stability dG unfold” value is reported as 0.859 ± 0.13 kcal/mol. With “SAGGSAGGSGMKITSISKLPDGSYLVTTQDPGKGTPTTVPFSTPEEGKKLKKELEEKGGKVELSAGGSAGGS [r20_177_JUSTAS]” the “folding stability dG unfold” value was -0.0692 ± 0.11 kcal/mol. In the case of “SAGGMPEVKIKVEITEIKVDKETGKTVTIRIKSVEITTADGRKYRVEKEIRIRPDGSIEVKVKVEELPSAGG [r13_917_TrROS_Hall]”, the “folding stability dG unfold” value is reported as 4.21 ± 0.14 kcal/mol. For “SAGGKTVPIMFPFDSPDQIEEIIEELAKPGFDDVKPERIEPEPPPDGNYYFPVRIEVDPKNGKIEITFSAGG [r13_174_TrROS]”, the “folding stability dG unfold” value was 0.185 ± 0.19 kcal/mol. In the case of “SAGGGSMEEARRLIEEIAEEVKAKGVKVKVRITFGPDPKVLSIEIFSPDEPIVDNGGPGLVTLTFDIPSAGG [r13_693_JUSTAS]”, the “folding stability dG unfold” value is reported as 2.778 ± 0.023 kcal/mol. With “SMITLELTDPATGAKYTLTIDPSTGKAKVTRTPPTGPPVSGTGTIEGNTLTITLYEPSGKPLATLTLPLPSA [r9_665_JUSTAS]” the “folding stability dG unfold” value was 5.53 ± 0.1 kcal/mol. For “SAMVVIPFPKDTPPEVALEAVRKAVREAAENGIVPEKIVVVAHPDLVFLVDSLVEAGIPLENVEFVPSESAG [r14_589_TrMRF]”, the “folding stability dG unfold” value was 2.86 ± 0.057 kcal/mol. For “SAGGSAGGMLLDEDGNLVVKIKLENGEEFEAKVTEIKDGKITVEVNGKKVEINAKDIELLPEDESAGGSAGG [r6_575_TrROS_Hall]”, the “folding stability dG unfold” value was 2.27 ± 0.05 kcal/mol. For “SAGGSAGPSVTVDVTFHPGEGTVDVTVTTEGEVVYGKGTFLNPSTVLVEVYFPGSGKVATLTLPVTSAGGSA [r15_837_TrMRF]”, the “folding stability dG unfold” value was 1.61 ± 0.07 kcal/mol. For “SAGGSAGGSAGGMVRITVEVDGKTYELVVEGMSLEEIEELLKKPNIKKAKVEPLSEEELKSAGGSAGGSAGG [r7_502_TrROS_Hall]”, the “folding stability dG unfold” value was 2.71 ± 0.09 kcal/mol. With “SAGGSAGGSAGGPRTIYIPVKVEPDPNGKWKIDIEEIAKNLPDVKITSITPNYIKITFPASAGGSAGGSAGG [r11_771_TrROS]” the “folding stability dG unfold” value was 1.38 ± 0.13 kcal/mol.
